# According to patent publication US20060034848A1 (published 2006):
# T1: LC-myc with the second NPxY motif mutated to APxA (UniProt Q07954 3944-4544, limits assumed)
# T1 construct: domain: light chain (LC); The substitutions have no printed residue numbers; also called 2nd NPxY mutant; not shown: C-terminal myc tag
# T1 sequence (looked up): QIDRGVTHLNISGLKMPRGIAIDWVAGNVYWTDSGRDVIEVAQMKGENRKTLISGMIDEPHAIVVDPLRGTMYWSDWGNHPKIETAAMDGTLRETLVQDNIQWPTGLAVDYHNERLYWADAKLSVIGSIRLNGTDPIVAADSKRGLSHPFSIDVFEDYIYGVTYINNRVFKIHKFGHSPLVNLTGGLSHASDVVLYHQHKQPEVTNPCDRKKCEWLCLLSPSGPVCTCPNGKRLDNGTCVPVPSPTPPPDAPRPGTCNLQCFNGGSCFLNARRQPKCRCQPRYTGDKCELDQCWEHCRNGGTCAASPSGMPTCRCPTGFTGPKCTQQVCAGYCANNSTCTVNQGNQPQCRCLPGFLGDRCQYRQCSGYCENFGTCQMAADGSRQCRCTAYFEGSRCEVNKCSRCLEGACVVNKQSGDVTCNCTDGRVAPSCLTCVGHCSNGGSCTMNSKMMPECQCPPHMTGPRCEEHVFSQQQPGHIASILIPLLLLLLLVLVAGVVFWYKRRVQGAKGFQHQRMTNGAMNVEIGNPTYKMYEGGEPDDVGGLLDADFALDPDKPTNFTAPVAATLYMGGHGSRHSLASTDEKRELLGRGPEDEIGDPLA
# B1: BACE (wild type; tag of the construct not stated at that place) (enzyme, human, UniProt P56817 46-501, looked up)
# chain: ETDEEPEEPGRRGSFVEMVDNLRGKSGQGYYVEMTVGSPPQTLNILVDTGSSNFAVGAAPHPFLHRYYQRQLSSTYRDLRKGVYVPYTQGKWEGELGTDLVSIPHGPNVTVRANIAAITESDKFFINGSNWEGILGLAYAEIARPDDSLEPFFDSLVKQTHVPNLFSLQLCGAGFPLNQSEVLASVGGSMIIGGIDHSLYTGSLWYTPIRREWYYEVIIVRVEINGQDLKMDCKEYNYDKSIVDSGTTNLRLPKKVFEAAVKSIKAASSTEKFPDGFWLGEQLVCWQAGTTPWNIFPVISLYLMGEVTNQSFRITILPQQYLRPVEDVATSQDDCYKFAISQSSTGTVMGAVIMEGFYVVFDRARKRIGFAVSACHVHDEFRTAAVEGPFVTLDMEDCGYNIPQTDESTLMTIAYVMAAICALFMLPLCLMVCQWRCLRCLRQQHDDFADDISLLK
# notes: whole, on cells; Used for the sentences that say only BACE or WT-BACE (NPxY mutant FLIM, Fe65 and mDab1 FRET, shedding, CTF and luciferase assays); also called WT-BACE
# Molecular target: T1, LC-myc with the second NPxY motif …
# Assay: FLIM/FRET in cells
binder,measurement,value
B1,binding result,binds
